According to the supplement of paper PMC9112550, “Optimization of the antimicrobial peptide Bac7 by deep mutational scanning” (BMC Biology, 2022):

The sequences below were run on Escherichia coli TOP10 (assay: shrunken log2 fold change of peptide-encoding DNA abundance (4.5 h post-induction vs induction); higher = less antimicrobial activity (less host growth inhibition)). Conditions: time post-induction: 4.5 h; library: site-saturation at positions 5, 18, 19, 20.
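Note: peptides expressed intracellularly from a pBAD plasmid library in pooled LB shake-flask culture, induced with 0.3% L-arabinose, DNA abundance read by NGS, three biological replicates, DESeq2 with apeglm shrinkage.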

Sequence | shrunken log2 fold change
RRIRIRPPRLPRPRPRPRDPPRP | 1.94
RRIRLRPPRLPRPRPRPNSTPRP | -0.294
RRIRSRPPRLPRPRPRPLEMPRP | -0.314
RRIRYRPPRLPRPRPRPNKQPRP | -0.0515
RRIRCRPPRLPRPRPRPRLHPRP | -0.0571
RRIRERPPRLPRPRPRPGGEPRP | 0.127
RRIRRRPPRLPRPRPRPVMGPRP | 0.0569
RRIRRRPPRLPRPRPRPMLMPRP | 0.122
RRIRSRPPRLPRPRPRPIREPRP | -0.0902
RRIRMRPPRLPRPRPRPWGMPRP | 0.187
RRIRIRPPRLPRPRPRPLYFPRP | -0.961
RRIRIRPPRLPRPRPRPLTYPRP | -0.495
RRIRFRPPRLPRPRPRPVDEPRP | 0.0494
RRIRWRPPRLPRPRPRPKPSPRP | 0.512
RRIRIRPPRLPRPRPRPFQCPRP | 0.00367
RRIRQRPPRLPRPRPRPMWCPRP | -0.339
RRIRHRPPRLPRPRPRPCWEPRP | 0.153
RRIRSRPPRLPRPRPRPNMEPRP | -0.154
RRIRSRPPRLPRPRPRPRVEPRP | 0.183
RRIRSRPPRLPRPRPRPFYVPRP | -0.546
RRIRNRPPRLPRPRPRPKFPPRP | -0.0759
RRIRYRPPRLPRPRPRPHFQPRP | -0.399
RRIRYRPPRLPRPRPRPILWPRP | -0.0119
RRIRHRPPRLPRPRPRPWKHPRP | -0.0222
RRIRARPPRLPRPRPRPPAPPRP | 1.19

Sequence | shrunken log2 fold change
RRIRKRPPRLPRPRPRPWVLPRP | 0.0941
RRIRCRPPRLPRPRPRPMTDPRP | -0.0858
RRIRWRPPRLPRPRPRPHFDPRP | -0.0757
RRIRNRPPRLPRPRPRPHVIPRP | -0.205
RRIRYRPPRLPRPRPRPPTCPRP | -0.163
RRIRWRPPRLPRPRPRPPHAPRP | 1.04
RRIRQRPPRLPRPRPRPICYPRP | 0.0933
RRIRFRPPRLPRPRPRPNMHPRP | -0.377
RRIRSRPPRLPRPRPRPVRHPRP | -0.0103
RRIRTRPPRLPRPRPRPDALPRP | 0.162
RRIRERPPRLPRPRPRPVLNPRP | -0.54
RRIRIRPPRLPRPRPRPFWMPRP | -0.192
RRIRSRPPRLPRPRPRPRVHPRP | 0.109
RRIRTRPPRLPRPRPRPDYEPRP | -0.023
RRIRWRPPRLPRPRPRPILCPRP | 0.00316
RRIRYRPPRLPRPRPRPCGCPRP | -0.0582
RRIRLRPPRLPRPRPRPIHGPRP | -0.0797
RRIRERPPRLPRPRPRPEHRPRP | -0.0185
RRIRYRPPRLPRPRPRPYCWPRP | -1.07
RRIRTRPPRLPRPRPRPGPKPRP | 0.152
RRIRDRPPRLPRPRPRPRDNPRP | -0.339
RRIRNRPPRLPRPRPRPECHPRP | -0.0505
RRIRFRPPRLPRPRPRPVPRPRP | 0.384
RRIRWRPPRLPRPRPRPRFYPRP | -0.00432
RRIRERPPRLPRPRPRPLHTPRP | -0.674

Sequence | shrunken log2 fold change
RRIRMRPPRLPRPRPRPVMFPRP | 0.199
RRIRARPPRLPRPRPRPDASPRP | 1.94
RRIRYRPPRLPRPRPRPVNLPRP | -0.0688
RRIRNRPPRLPRPRPRPRCAPRP | 0.708
RRIRFRPPRLPRPRPRPHKHPRP | -0.579
RRIRMRPPRLPRPRPRPVQSPRP | 0.206
RRIRARPPRLPRPRPRPSSWPRP | 0.158
RRIRDRPPRLPRPRPRPEYHPRP | -0.000207
RRIRNRPPRLPRPRPRPDQIPRP | -0.0823
RRIRERPPRLPRPRPRPQQMPRP | -0.237
RRIRTRPPRLPRPRPRPEPHPRP | 0.0668
RRIRDRPPRLPRPRPRPVAQPRP | 0.616
RRIRTRPPRLPRPRPRPWFDPRP | -0.247
RRIRYRPPRLPRPRPRPGLKPRP | -0.0239
RRIRQRPPRLPRPRPRPTKEPRP | 0.0425
RRIRCRPPRLPRPRPRPNPNPRP | -0.135
RRIRHRPPRLPRPRPRPLIEPRP | -0.106
RRIRCRPPRLPRPRPRPCKFPRP | -0.431
RRIRGRPPRLPRPRPRPKLDPRP | 1.2
RRIRDRPPRLPRPRPRPDPHPRP | 0.0248
RRIRDRPPRLPRPRPRPDDHPRP | 0.023
RRIRVRPPRLPRPRPRPCVFPRP | -0.00495
RRIRTRPPRLPRPRPRPLWVPRP | 0.0735
RRIRYRPPRLPRPRPRPWRWPRP | -0.036
RRIRNRPPRLPRPRPRPNWPPRP | 0.142

Sequence | shrunken log2 fold change
RRIRPRPPRLPRPRPRPTITPRP | -0.347
RRIRFRPPRLPRPRPRPEHWPRP | 0.0716
RRIRFRPPRLPRPRPRPPLSPRP | 0.133
RRIRWRPPRLPRPRPRPAELPRP | -0.0722
RRIRKRPPRLPRPRPRPHPVPRP | 0.185
RRIRARPPRLPRPRPRPVDPPRP | 0.291
RRIRIRPPRLPRPRPRPKWFPRP | -0.69
RRIRPRPPRLPRPRPRPFYCPRP | -0.212
RRIRIRPPRLPRPRPRPFYQPRP | 0.234
RRIRCRPPRLPRPRPRPWSPPRP | -0.0395
RRIRSRPPRLPRPRPRPCEWPRP | 0.0266
RRIRIRPPRLPRPRPRPHQHPRP | -0.351
RRIRTRPPRLPRPRPRPTSGPRP | 0.0562
RRIRNRPPRLPRPRPRPHKMPRP | -0.634
RRIRFRPPRLPRPRPRPAYNPRP | -0.486
RRIRYRPPRLPRPRPRPKHNPRP | -0.68
RRIRARPPRLPRPRPRPYQHPRP | -0.272
RRIRARPPRLPRPRPRPIPRPRP | 0.526
RRIRFRPPRLPRPRPRPHSQPRP | -0.351
RRIRKRPPRLPRPRPRPAMYPRP | 0.256
RRIRMRPPRLPRPRPRPIFKPRP | 0.161
RRIRSRPPRLPRPRPRPMNKPRP | -0.6
RRIRPRPPRLPRPRPRPYMWPRP | -0.455
RRIRHRPPRLPRPRPRPRLVPRP | -0.113
RRIRFRPPRLPRPRPRPRFFPRP | 0.0547

Sequence | shrunken log2 fold change
RRIRERPPRLPRPRPRPWWTPRP | -0.0694
RRIRSRPPRLPRPRPRPTFWPRP | 0.536
RRIRIRPPRLPRPRPRPFSHPRP | -0.177
RRIRSRPPRLPRPRPRPTGPPRP | -0.0769
RRIRTRPPRLPRPRPRPDIVPRP | -0.0539
RRIRQRPPRLPRPRPRPAVQPRP | 0.013
RRIRTRPPRLPRPRPRPVFCPRP | -0.139
RRIRWRPPRLPRPRPRPLVIPRP | -0.0698
RRIRQRPPRLPRPRPRPNLAPRP | 0.281
RRIRLRPPRLPRPRPRPKHQPRP | 0.125
RRIRFRPPRLPRPRPRPHIAPRP | -0.532
RRIRQRPPRLPRPRPRPPFTPRP | -0.0512
RRIRRRPPRLPRPRPRPGFNPRP | 0.0515
RRIRFRPPRLPRPRPRPEPCPRP | -0.111
RRIRDRPPRLPRPRPRPQLKPRP | -0.0603
RRIRLRPPRLPRPRPRPGHSPRP | -0.0313
RRIRIRPPRLPRPRPRPMGGPRP | 0.38
RRIRTRPPRLPRPRPRPGLGPRP | 0.466
RRIRVRPPRLPRPRPRPGHLPRP | -0.185
RRIRMRPPRLPRPRPRPKYIPRP | -0.161
RRIRIRPPRLPRPRPRPYSLPRP | -0.607
RRIRNRPPRLPRPRPRPYLTPRP | -0.332
RRIRARPPRLPRPRPRPYLCPRP | -0.291
RRIRFRPPRLPRPRPRPHESPRP | -0.0515
RRIRPRPPRLPRPRPRPIMFPRP | -0.37

Sequence | shrunken log2 fold change
RRIRYRPPRLPRPRPRPRCLPRP | -0.0564
RRIRNRPPRLPRPRPRPRHFPRP | -0.201
RRIRYRPPRLPRPRPRPLTFPRP | -0.696
RRIRNRPPRLPRPRPRPHGMPRP | -0.0652
RRIRTRPPRLPRPRPRPELAPRP | 0.188
RRIRNRPPRLPRPRPRPQIPPRP | 0.0549
RRIRYRPPRLPRPRPRPVCTPRP | -0.569
RRIRKRPPRLPRPRPRPKLWPRP | 0.656
RRIRYRPPRLPRPRPRPPPGPRP | 0.909
RRIRPRPPRLPRPRPRPNVDPRP | -0.0229
RRIRSRPPRLPRPRPRPLWLPRP | -0.0472
RRIRVRPPRLPRPRPRPNRNPRP | -0.238
RRIRFRPPRLPRPRPRPCLWPRP | -0.0174
RRIRGRPPRLPRPRPRPMWMPRP | 0.118
RRIRPRPPRLPRPRPRPLHHPRP | -0.0808
RRIRHRPPRLPRPRPRPCATPRP | 0.0959
RRIRMRPPRLPRPRPRPIDRPRP | -0.0322
RRIRARPPRLPRPRPRPIDNPRP | -0.0987
RRIRFRPPRLPRPRPRPKLVPRP | 0.147
RRIRARPPRLPRPRPRPSRCPRP | 0.228
RRIRERPPRLPRPRPRPAKAPRP | 0.0877
RRIRRRPPRLPRPRPRPAHGPRP | 0.279
RRIRPRPPRLPRPRPRPGVYPRP | 0.0962
RRIRWRPPRLPRPRPRPLLIPRP | 0.0213
RRIRRRPPRLPRPRPRPNWFPRP | -0.0681
